The results in this text go back to patent publication US20240190989A1 (BEIGENE SWITZERLAND, published 2024).

The EC50 is the concentration that produces a half-maximal response. The Kd is the concentration at which binding is half-saturated.

In one assay the target is T1, human CD40 ECD-mIgG2a (human).
T1 construct: also called TNFRSF5(CD40)
Kind of assay: antigen ELISA, antigens coated at 10 µg/ml.

The target of another assay is T2, human OX40 ECD-His (human, UniProt P43489 29-216).
T2 construct: also called human OX40-his; TNFRSF4(OX40)
T2 sequence: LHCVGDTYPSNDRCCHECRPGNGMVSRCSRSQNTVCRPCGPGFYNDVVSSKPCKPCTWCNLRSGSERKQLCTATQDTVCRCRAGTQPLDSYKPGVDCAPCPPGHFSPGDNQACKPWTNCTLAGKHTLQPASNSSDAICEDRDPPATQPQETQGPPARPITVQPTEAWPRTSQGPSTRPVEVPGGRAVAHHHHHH
Kind of assay: antigen ELISA, antigens coated at 10 µg/ml.

Assay [1] has as its target T3, TNFRSF1B (CD120b), Sino Biological (UniProt P20333 23-257).
T3 sequence (looked up): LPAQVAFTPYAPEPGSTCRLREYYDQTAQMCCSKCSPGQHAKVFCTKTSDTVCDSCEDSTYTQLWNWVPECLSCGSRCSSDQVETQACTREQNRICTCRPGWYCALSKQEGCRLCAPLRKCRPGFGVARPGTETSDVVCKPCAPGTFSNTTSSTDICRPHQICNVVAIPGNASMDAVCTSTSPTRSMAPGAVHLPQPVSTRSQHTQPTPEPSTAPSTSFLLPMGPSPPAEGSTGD
The assay can be described thus: antigen ELISA, antigens coated at 10 µg/ml. Background: ELISA stands for enzyme-linked immunosorbent assay.

The target of assay [2] is T4, TNFRSF1A (CD120a), Sino Biological (UniProt P19438 30-211, limits assumed).
T4 construct: also called TNFRSF1A(CD12.a)
T4 sequence (looked up): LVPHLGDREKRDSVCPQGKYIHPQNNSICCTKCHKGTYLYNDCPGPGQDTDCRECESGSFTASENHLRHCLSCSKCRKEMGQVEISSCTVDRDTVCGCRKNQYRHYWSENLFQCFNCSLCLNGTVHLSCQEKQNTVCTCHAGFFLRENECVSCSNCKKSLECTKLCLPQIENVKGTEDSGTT
Kind of assay: antigen ELISA, antigens coated at 10 µg/ml.

In assay [3] the target is T5, full-length human CD137 on cells (Hut78/huCD137, HEK293 transfectants, JK-NFKB-CD137) (human, UniProt Q07011 24-255).
T5 construct: also called native CD137; TNFRSF9
T5 sequence (Q07011 24-255 limits assumed): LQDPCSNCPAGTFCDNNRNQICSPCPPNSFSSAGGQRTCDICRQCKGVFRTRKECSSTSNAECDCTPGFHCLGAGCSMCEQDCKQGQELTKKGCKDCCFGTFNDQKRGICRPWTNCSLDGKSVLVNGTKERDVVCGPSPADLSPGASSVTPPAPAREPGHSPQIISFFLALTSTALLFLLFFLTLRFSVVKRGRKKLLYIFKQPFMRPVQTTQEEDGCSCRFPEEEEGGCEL
Kind of assay: flow cytometry on Hut78/huCD137 cells: serially diluted antibody against human CD137 ligand ECD-mIgG2a, bound ligand detected with goat anti-murine IgG-APC [panel B]. On the technique in general: A flow cytometer gives signals particle by particle.

In assay [4] the target is T5, full-length human CD137 on cells …. The assay can be described thus: flow cytometry on Hut78/huCD137 cells.
Assay [5] deals with T6, human CD137 ECD-mIgG2a (human).
T6 construct: ECD 24-183 of huCD137 fused to mouse IgG2a Fc; also called huCD137-mIgG2a; huCD137
T6 sequence (chain, as listed by the source limits assumed): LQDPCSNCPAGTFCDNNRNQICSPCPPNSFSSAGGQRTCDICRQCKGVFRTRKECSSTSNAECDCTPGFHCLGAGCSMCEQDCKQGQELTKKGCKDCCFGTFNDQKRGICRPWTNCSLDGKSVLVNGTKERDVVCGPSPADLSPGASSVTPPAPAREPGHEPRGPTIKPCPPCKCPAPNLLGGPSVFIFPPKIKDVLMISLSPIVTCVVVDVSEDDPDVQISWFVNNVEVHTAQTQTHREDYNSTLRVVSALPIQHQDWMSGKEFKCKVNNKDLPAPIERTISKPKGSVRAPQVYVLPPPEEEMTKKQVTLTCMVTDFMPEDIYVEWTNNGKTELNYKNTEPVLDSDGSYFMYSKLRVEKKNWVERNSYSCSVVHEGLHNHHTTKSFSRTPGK
The assay can be described thus: SPR, A-CEAxCD137 format. On the technique in general: Surface plasmon resonance follows binding to a sensor surface in real time, without labels.
Experimental: Characterization of anti-huCD137 VH domain antibodies were made by SPR assays using BIAcore™ T-200 (GE Life Sciences). Briefly, anti-human IgG (Fc) antibody was immobilized on an activated CM5 biosensor chip (Cat.: BR100839, GE Life Sciences). Anti-huCD137 domain antibodies were flowed over the chip surface and captured by anti-human IgG (Fc) antibody. […] The equilibrium dissociation constant (KD) was calculated as the ratio koff/kₒₙ.
Affinity comparison on CD137 affinity matured variants was made by SPR assays using BIAcore™ T-200 (GE Life Sciences) and flow cytometry as described.

Assay [6] has as its target T6, human CD137 ECD-mIgG2a. Kind of assay: SPR, Format A-CEAxCD137; Format A-CEAxCD137, not Fc fusion VH.
The target in assay [7] is T6, human CD137 ECD-mIgG2a. The assay can be described thus: SPR, Format A-CEAxCD137.

T1 sequence (chain, as listed by the source limits assumed): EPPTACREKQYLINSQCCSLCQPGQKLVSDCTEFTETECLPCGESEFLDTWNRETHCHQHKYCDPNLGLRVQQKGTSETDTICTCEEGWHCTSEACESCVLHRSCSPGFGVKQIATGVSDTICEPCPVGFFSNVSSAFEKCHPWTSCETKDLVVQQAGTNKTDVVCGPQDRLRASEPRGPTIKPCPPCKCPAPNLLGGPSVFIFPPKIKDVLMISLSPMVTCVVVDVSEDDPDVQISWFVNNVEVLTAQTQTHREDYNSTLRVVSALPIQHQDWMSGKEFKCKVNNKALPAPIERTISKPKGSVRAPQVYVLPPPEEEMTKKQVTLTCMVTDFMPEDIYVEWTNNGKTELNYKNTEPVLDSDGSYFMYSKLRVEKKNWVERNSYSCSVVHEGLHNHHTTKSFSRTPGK

B1: Urelumab analog (antibody, human IgG4 S228P, kappa, V domains shown)
VH: QVQLQQWGAGLLKPSETLSLTCAVYGGSFSGYYWSWIRQSPEKGLEWIGEINHGGYVTYNPSLESRVTISVDTSKNQFSLKLSSVTAADTAVYYCARDYGPGNYDWYFDLWGRGTLVTVSS
VL: EIVLTQSPATLSLSPGERATLSCRASQSVSSYLAWYQQKPGQAPRLLIYDASNRATGIPARFSGSGSGTDFTLTISSLEPEDFAVYYCQQRSNWPPALTFGGGTKVEIKR
notes: also called Urelumab analog antibody
On to B1, for which the binding result (in the assay with human CD40 ECD-mIgG2a; in the assay with human OX40 ECD-His; in assay [1]; in [2]) was “no binding (tested: not shown)” throughout. The “IC50 (read off the curve)” value in assay [3] was about 0.03 mg/L.

B2: A-CEAxCD137-M3 (Format A with BGA-4712-M3) (bispecific antibody, human IgG1, kappa)
heavy: QVQLVQSGAEVKKPGASVKVSCKASGYIFTSYYLHWVRQAPGQGLEWIGYINPQTGKTSYAQKFQGRVTMTRDTSTSTVYMELSSLRSEDTAVYYCAREYGNYNYPLDYWGQGTLVTVSSASTKGPSVFPLAPSSKSTSGGTAALGCLVKDYFPEPVTVSWNSGALTSGVHTFPAVLQSSGLYSLSSVVTVPSSSLGTQTYICNVNHKPSNTKVDKKVEPKSCDKTHTCPPCPAPPAAGPSVFLFPPKPKDTLMISRTPEVTCVVVDVSHEDPEVKFNWYVDGVEVHNAKTKPREEQYNSTYRVVSVLTVLHQDWLNGKEYKCKVSNKALAAPIEKTISKAKGQPREPQVYTLPPSREEMTKNQVSLTCLVKGFYPSDIAVEWESNGQPENNYKTTPPVLDSDGSFFLYSKLTVDKSRWQQGNVFSCSVMHEALHNHYTQKSLSLSPGKGGGGSEVQLLESGGGLVQPGGSLRLSCAASGFTLSAEDVGWVRQAPGKGLEWVSAILDFGGSTYYAESVKGRFTISRDNAKNTLYLQMSSLRAEDTAVYYCARVVYHAGGGVTFDYWGQGTLVTVSS
light: DIQMTQSPSSLSASVGDRVTITCRASENQYGYLAWYQQKPGKVPKLLIYNYKNLVEGVPSRFSGSGSGTDFTLTISSLQPEDVATYYCQHHLGTPYTFGQGTKVEIKRTVAAPSVFIFPPSDEQLKSGTASVVCLLNNFYPREAKVQWKVDNALQSGNSQESVTEQDSKDSTYSLSSTLTLSKADYEKHKVYACEVTHQGLSSPVTKSFNRGEC
B2: the midpoint of the response in assay [4], the EC50, lay at 0.52 mg/L. Also, the equilibrium dissociation constant (Kd) with human CD137 ECD-mIgG2a [5] was 0.289 µM; with human CD137 ECD-mIgG2a [6], 0.255 µM.

B3: Format A-BGA-7556 (bispecific antibody, human IgG1, kappa)
heavy: QVQLVQSGAEVKKPGASVKVSCKASGYIFTSYYLHWVRQAPGQGLEWIGYINPQTGKTSYAQKFQGRVTMTRDTSTSTVYMELSSLRSEDTAVYYCAREYGNYNYPLDYWGQGTLVTVSSASTKGPSVFPLAPSSKSTSGGTAALGCLVKDYFPEPVTVSWNSGALTSGVHTFPAVLQSSGLYSLSSVVTVPSSSLGTQTYICNVNHKPSNTKVDKKVEPKSCDKTHTCPPCPAPPAAGPSVFLFPPKPKDTLMISRTPEVTCVVVDVSHEDPEVKFNWYVDGVEVHNAKTKPREEQYNSTYRVVSVLTVLHQDWLNGKEYKCKVSNKALAAPIEKTISKAKGQPREPQVYTLPPSREEMTKNQVSLTCLVKGFYPSDIAVEWESNGQPENNYKTTPPVLDSDGSFFLYSKLTVDKSRWQQGNVFSCSVMHEALHNHYTQKSLSLSPGKGGGGSEVQLLESGGGLVQPGGSLRLSCAASGFTLSAEDVGWVRQAPGKGLEWVSAILDFGGSTYYAESVKGRFTISRDNAKNTLYLQMSSLRAEDTAVYYCARVVYHAGGGVTFDYRGQGTQVTVSS
light: DIQMTQSPSSLSASVGDRVTITCRASENQYGYLAWYQQKPGKVPKLLIYNYKNLVEGVPSRFSGSGSGTDFTLTISSLQPEDVATYYCQHHLGTPYTFGQGTKVEIKRTVAAPSVFIFPPSDEQLKSGTASVVCLLNNFYPREAKVQWKVDNALQSGNSQESVTEQDSKDSTYSLSSTLTLSKADYEKHKVYACEVTHQGLSSPVTKSFNRGEC
notes: also called BGA-7556 Format A-CEAxCD137
For the molecule B3, the EC50 in assay [4] is 3.23 mg/L. The Kd in the assay with human CD137 ECD-mIgG2a [5] stood at 0.649 µM; in the assay with human CD137 ECD-mIgG2a [7], 0.669 µM.
